Test results as given in patent US20110265202A1.

Experiments:
[1] = molecular target: PrpS1-GFP fusion protein expressed in Arabidopsis thaliana pollen (line BG16) (Papaver rhoeas); test: cell-based or functional assay
[2] = molecular target: PrpS8 (Papaver rhoeas pollen S8 protein) on P. rhoeas pollen (Papaver rhoeas); test: cell-based or functional assay

pollen germination of BG16 Arabidopsis pollen, in vitro SI assay [1]	% germination of P. rhoeas S1S8 pollen with both PrsS1 and PrsS8 added (29.7% with S1 alone) [2]	Substance	pollen viability (Evans blue) at t=2 h, BG16+PrsS1 against WT+S1 pollen [1]	pollen viability (Evans blue) at t=4 h, BG16+PrsS1 against WT+S1 pollen [1]	pollen viability (Evans blue) at t>8 h, BG16+PrsS1 against WT+S1 pollen [1]
50 % reduction	–	recombinant Papaver rhoeas pistil S1 protein (PrsS1) (ligand)	35 times lower	53 times lower	45 times lower
–	1%	recombinant Papaver rhoeas pistil S8 protein (PrsS8) (ligand)	–	–	–
